# Experimental data from patent publication US7838294B2, “Inhibitors of the JNK signal transduction pathway and methods of use” (University of Massachusetts, priority 1997, dated 2010).
# B1: JIP-1: 660 amino acid murine cytoplasmic protein that specifically binds JNK (protein)
# chain: MAERESGLGGGAASPPAASPFLGLHIASPPNFRLTHDISLEEFEDEDLSEITDECGISLQCKDTLSLRPPRAGLLSAGSSGSAGSRLQAEMLQMDLIDAAGDTPGAEDDEEEEDDELAAQRPGVGPPKAESNQDPAPRSQGQGPGTGSGDTYRPKRPTTLNLFPQVPRSQDTLNNNSLGKKHSWQDRVSRSSSPLKTGEQTPPHEHICLSDELPPQGSPVPTQDRGTSTDSPCRRSAATQMAPPSGPPATAPGGRGHSHRDRIHYQADVRLEATEEIYLTPVQRPPDPAEPTSTFMPPTESRMSVSSDPDPAAYSVTAGRPHPSISEEDEGFDCLSSPERAEPPGGGWRGSLGEPPPPPRASLSSDTSALSYDSVKYTLVVDEHAQLELVSLRPCFGDYSDESDSATVYDNCASASSPYESAIGEEYEEAPQPRPPTCLSEDSTPDEPDVHFSKKFLNVFMSGRSRSSSAESFGLFSCVINGEEHEQTHRAIFRFVPRHEDELELEVDDPLLVELQAEDYWYEAYNMRTGARGVFPAYYAIEVTKEPEHMAALAKNSCVLEISVRGVKIGVKADDALEAKGNKCSHFFQLKNISFCGYHPKNNKYFGFITKHPADHRFACHVFVSEDSTKALAESVGRAFQQFYKQFVEYTCPTEDIYLE
# Legend:
# p38 = assay: Immune complex protein kinase assay: p38, substrate GST-ATF2; type: biochemical, Chinese hamster; settings: in vitro, 3 μg GST-ATF2
# Description: To test whether JIP-1 competes with Jun and ATF2 for interaction with JNK, the effect of JIP-1 on transcription factor-mediated phosphorylation of exogenous substrates was analyzed using an in vitro protein kinase assay. In these experiments, Chinese hamster ovary (CHO) cells were serum-starved for one hour. In some experiments, the cells were treated with 10 ng/ml mouse interleukin 1 or 100 nM phorbol myristic acetate. JNK, p38, and ERK protein kinase activity was measured in an immune complex kinase assay using 3 μg of the substrates GST-Jun, GST-ATF2, and myelin basic protein (MBP), respectively. Protein kinase assays were performed using 40 μl 20 mM Hepes (pH 7.4), 20 mM MgCl2, 20 mM β-glycerophosphate, 2 mM dithiothreitol, 0.1 mM sodium orthovanadate, 50 μM [γ-^32P]ATP (10 Ci/mmol). After incubation for 30 minutes at 30° C., phosphorylation of substrates was analyzed by polyacrylamide gel electrophoresis and autoradiography.
# p38 MAP kinase = target: T1, p38 MAP kinase (Homo sapiens, UniProt Q16539); assay: GST-fusion pull-down from cell lysates, Flag immunoblot: p38 MAP kinase; type: binding; settings: control experiment, Flag-p38 lysate
# T1 construct: expressed in transfected cells
# T1 sequence (Q16539 whole entry, the tested form may be a part): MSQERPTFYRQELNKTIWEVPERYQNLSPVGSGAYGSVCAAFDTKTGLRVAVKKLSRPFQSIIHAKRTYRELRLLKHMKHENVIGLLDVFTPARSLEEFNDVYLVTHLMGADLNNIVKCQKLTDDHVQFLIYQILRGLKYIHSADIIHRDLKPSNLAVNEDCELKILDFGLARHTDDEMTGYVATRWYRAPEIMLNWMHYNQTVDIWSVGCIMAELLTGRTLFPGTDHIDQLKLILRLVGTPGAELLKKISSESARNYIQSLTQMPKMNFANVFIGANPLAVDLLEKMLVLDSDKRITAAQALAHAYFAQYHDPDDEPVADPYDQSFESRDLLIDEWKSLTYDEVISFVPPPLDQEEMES
# Description: To test whether JIP-1 binding to JNK is also isoform-dependent, a binding assay was utilized. Cell lysates (1 ml in TLB) containing JNK1, JNK2, or p38 MAP kinase, each tagged with the Flag epitope, were incubated with 5 μg GST-fusion proteins pre-bound to 10 μl glutathione-Sepharose. The GST fusion proteins used contain residues 127-202 (SEQ ID NO:15), 203-281 (SEQ ID NO:16), 164-240 (SEQ ID NO:17), or 127-281 (SEQ ID NO:4) of JIP-1. The GST-ATF2 fusion protein contains residues 1-109 of ATF2, and the GST-Jun fusion protein contains residues 1-79 of c-Jun. After incubation for one hour at 4° C. and three washes with TLB, bound proteins were detected by protein immunoblot analysis with the M2 monoclonal antibody, which is specific for the Flag epitope. Dérijard, et al., supra; Sluss et al., supra; Gupta et al., supra. […] This finding is consistent with the results of previous studies. In contrast, when GST-JIP-1 fusion proteins containing residues 127-202 or 127-281 of JIP-1 were tested in the assay, these proteins bound both JNK1 and JNK2.
# ERK2 = ERK2 (Homo sapiens, UniProt P28482); assay: Co-immunoprecipitation of JIP-1 with ERK2 (specificity control); type: binding; settings: control experiment
# Chain of ERK2 (P28482 whole entry, species assumed, the tested form may be a part): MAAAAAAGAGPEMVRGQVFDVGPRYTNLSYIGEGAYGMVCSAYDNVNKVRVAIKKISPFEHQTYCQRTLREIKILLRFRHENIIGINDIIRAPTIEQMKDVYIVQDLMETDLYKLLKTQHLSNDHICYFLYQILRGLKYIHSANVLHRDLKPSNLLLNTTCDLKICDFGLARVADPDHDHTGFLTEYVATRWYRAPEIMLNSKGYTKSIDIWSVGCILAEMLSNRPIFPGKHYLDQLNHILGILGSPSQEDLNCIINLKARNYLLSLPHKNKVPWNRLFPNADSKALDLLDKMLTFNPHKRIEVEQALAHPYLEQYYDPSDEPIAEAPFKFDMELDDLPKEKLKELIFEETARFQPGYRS
# [1] = system: c-Jun transcriptional activity; assay: GAL4 luciferase reporter assay in CHO cells: GAL4-c-Jun; type: cell-based, Chinese hamster; settings: FIG. 4B
# Description: In these experiments, CHO cells were cotransfected with constructs encoding the transcription factors and JIP-1 using previously described methods. Dérijard et al., supra; Sluss et al., supra; Gupta et al., supra. A luciferase reporter plasmid was used to monitor the expression of the transcription factors. Transfection efficiency was determined using a β-galactosidase expression vector. Constructs used in these experiments included GAL4 fusions with the c-myc, Sp1 and VP16 activation domains (described in Whitmarsh et al., Science, 269:403 (1995); Davis, Science, 269:403 (1995); Gille et al., Curr. Biol., 5:1191 (1995)). […]
# Transfected cells were activated by treatment with 10% (v/v) fetal calf serum, and luciferase and β-galactosidase activities were measured in cell lysates at 48 hours post-transfection. The data are presented as the ratio of luciferase activity (light units) to β-galactosidase activity (OD units) measured in the cell extracts (mean±SEM (n=3)), and are normalized to the luciferase activity detected in the absence of JBD (FIGS. 4A and 4B) or ATF2 (FIG. 4C).
# JNK = target: T2, JNK (Homo sapiens, UniProt P45983); assay: Immunofluorescence: subcellular distribution of JNK on JIP-1 expression; type: cell-based; settings: HA-JNK1 with Flag-JIP-1; control and UV-irradiated cells
# T2 construct: expressed in transfected cells; host or cells: COS-1 cells (co-immunoprecipitation)
# T2 sequence (P45983 1-384 isoform P45983-2): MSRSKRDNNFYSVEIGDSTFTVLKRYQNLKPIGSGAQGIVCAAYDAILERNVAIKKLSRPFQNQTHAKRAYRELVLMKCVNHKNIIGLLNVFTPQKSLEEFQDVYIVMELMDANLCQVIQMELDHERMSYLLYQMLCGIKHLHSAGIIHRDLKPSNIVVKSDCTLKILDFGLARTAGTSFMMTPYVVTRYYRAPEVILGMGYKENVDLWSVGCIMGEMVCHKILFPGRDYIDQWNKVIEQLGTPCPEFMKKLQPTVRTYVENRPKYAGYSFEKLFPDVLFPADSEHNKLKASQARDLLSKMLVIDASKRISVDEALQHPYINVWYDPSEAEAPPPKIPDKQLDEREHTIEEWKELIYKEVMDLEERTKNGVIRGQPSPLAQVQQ
# Description: The subcellular distribution of JIP-1 was analyzed by performing indirect immunofluorescence on JIP-1-expressing cells. In these experiments, the cells were grown on coverslips, fixed with 4% paraformaldehyde, permeabilized with 0.25% Triton X-100, and processed for immunofluorescence microscopy. JIP-1 was detected in the cytoplasm, but not the nucleus, of control and UV-irradiated cells. In contrast, JNK is detected in both the cytoplasmic and nuclear compartments.
# It is likely that it is JNK in the nucleus which is involved in the regulation of gene expression. Since JIP-1 is cytoplasmic, it was unclear how it could inhibit the nuclear function of JNK. To investigate the mechanism of JIP-1 action, the distribution of JNK was examined in cells that had been transfected with either hemagglutinin (HA)-tagged JNK1 (HA-JNK1) alone, or HA-JNK1 and Flag-tagged JIP-1 (Flag-JIP-1). In these experiments, the cells were exposed to a potent JNK activator (40 J/m^2 UV-C) for one hour prior to processing for immunofluorescence. The primary antibodies used were rabbit anti-HA (12CA5; Boehringer Mannheim), which recognizes HA-tagged JNK1; and mouse monoclonal anti-Flag (M2; IBI-Kodak), which recognizes Flag-tagged JIP-1. The secondary antibodies were Texas Red-goat anti-mouse Ig and fluoroscein isothiocyanate-conjugated donkey anti-rabbit Ig (Jackson Immunoresearch). […]
molecule,measurement,setting,value
B1,phosphorylation of substrate by p38,p38,no significant change
same,binding to p38 MAP kinase,p38 MAP kinase,did not bind
same,co-immunoprecipitation of JIP-1 with ERK2,ERK2,did not co-immunoprecipitate
same,basal transcriptional activity of c-Jun mutated at JNK phosphorylation sites,[1]; GAL4-c-Jun (S63A/S73A),not markedly inhibited
same,c-Jun transcriptional activity,"[1]; wild type GAL4-c-Jun, CHO cells",Significant inhibition
same,amount of nuclear JNK,JNK,reduces
